# Experimental data from US20230075979A1.
# Legend:
# [1] = target: human ACE2 peptidase domain (amino acids 1-615 of human ACE2 with C-terminal His-10 and Avi tags) (human) (UniProt Q9BYF1); assay: biolayer interferometry (Octet RED384); assumed value, not measured
# [2] = target: human ACE2 peptidase domain (amino acids 1-615 of human ACE2 with C-terminal His-10 and Avi tags) (human) (UniProt Q9BYF1)
# Sequence of UniProt Q9BYF1 (Q9BYF1 18-615 limits assumed): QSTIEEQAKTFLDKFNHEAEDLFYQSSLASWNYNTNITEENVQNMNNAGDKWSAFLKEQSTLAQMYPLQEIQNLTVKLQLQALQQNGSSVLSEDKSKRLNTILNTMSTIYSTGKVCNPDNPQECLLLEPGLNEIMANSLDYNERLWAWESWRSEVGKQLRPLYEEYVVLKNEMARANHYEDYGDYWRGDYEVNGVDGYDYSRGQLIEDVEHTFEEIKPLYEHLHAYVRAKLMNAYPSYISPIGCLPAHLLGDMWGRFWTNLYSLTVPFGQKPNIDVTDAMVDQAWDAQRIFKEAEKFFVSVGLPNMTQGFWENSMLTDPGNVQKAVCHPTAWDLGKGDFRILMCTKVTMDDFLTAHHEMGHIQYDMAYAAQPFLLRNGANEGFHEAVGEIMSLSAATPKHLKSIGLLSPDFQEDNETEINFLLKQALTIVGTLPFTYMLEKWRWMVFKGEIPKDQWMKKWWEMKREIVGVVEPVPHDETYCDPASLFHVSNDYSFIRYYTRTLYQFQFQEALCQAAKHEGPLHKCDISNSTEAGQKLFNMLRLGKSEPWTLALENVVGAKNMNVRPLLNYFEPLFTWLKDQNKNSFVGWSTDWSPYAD
substance,measurement,setting,value
RBD-foldon trimer (trimerised SARS-CoV-2 spike receptor-binding domain fused to the T4 fibritin fold (other; other documents disagree on this pair),koff,[1],< 1e-06 s⁻¹
same,Kd,[2],5 pM
